According to patent US20140289906A1, “Compositions Having Dicamba Decarboxylase Activity and Methods of Use” (priority 2013, published 2014):

Assay: 14C assay: 14CO2 capture from [14C]-carboxyl-labeled dicamba with IPTG-induced recombinant E. coli cells
Settings: for Dicamba Decarboxylase Activity: IPTG-induced recombinant E. coli cells, 14CO2 from [14C]-carboxyl-labeled dicamba; for decarboxylation activity of dicamba: among the 108 sequences tested, recombinant E. coli cell assay; for Enzymatic Detection level: dicamba decarboxylation activity

Molecule	Dicamba Decarboxylase Activity	decarboxylation activity of dicamba	Enzymatic Detection level
21 (protein, listed as Agrobacterium tumefaciens) MAQGKVALEEHFAIPETLQDSAGFVPGDYWKELQHRLLDIQDTRLKLMDAHGIETMILSLNAPAVQAIPDRKKAIEIARRANDVLAEECARRPDRFLAFAALPLQDPDAATQELQRCVNDLGFVGALVNGFSQEGDGQTPLYYDLPQYRPFWGEVEKLDVPFYLHPRNPLPQDSRIYDGHPWLLGPTWAFAQETAVHALRLMASGLFDAHPRLNIILGHMGEGLPYMMWRIDHRNAWVKLPPRYPAKRRFVDYFNENFHITTSGNFRTQTLIDAILEIGADRILFSTDWPFENIDHASDWFNATTIAEADRVKIGRTNARRLFKLDGR	High	showed decarboxylation activity of dicamba	High
89 (protein, listed as Erwinia billingiae) MATNRRDFLKNATAVMAGSTVFAGSSHFASAAAVEPAAVQPPRRIIALEEHFMLPEFVGYLHETQQNLRNGLVDKVVTPLSDFGKGRLEIMDKNGVDFAVLSLSGPGVQAEPDRVKAVRLARYANDKLATEMQKNPRRYGGFAHLAMQDPLAAANELERCVKQLHMQGGMINGETDGLYLDDRRYDVFWERVEALNVPIYIHPGNPPDYPHMFAGHPEMWGPVWSWAVETCSHALRLIFSGTFDRYPGARVILGHMGETLPIQLWRLDSRYQIANQTFAIKHPPSWYAKKNITITTSGVCNDAALRCALDSMGSENVMFSIDYPFESTEIAVNWLKTANITEQERNAVAWGNATSILRLGA	High	showed decarboxylation activity of dicamba	High
92 (protein, listed as Chitinophaga pinensis) MARIVTLEEHVSFPEMTALLPEEILKNRKQSGAALQMQEKLADITGERLTSMKAAGISMQVLSVENTDVYLLPDSLAPAFAAKYNDLLADKISSHSDAFAAFAMLPMTVPEAAADELERAVKTHGFCGAMIKGLINGVFLDAPKFAPVFACAEKLGVPLYIHPGIPPKEVIDAYYSNVGDTKGPNEAIACYGWGWHSETAIHILRLLAAGIFDKYPQLNIIIGHMGEMLPMMWERSNRVFQPGNNGKNQRTLIETFRKQLYITTSGIFTQPPLQIAIDTIGIDNILFSIDYPFSSNQMGIDFLTKAALPAEQLAKMAHGNADRILKF	Yes	showed decarboxylation activity of dicamba	High
4 (protein, listed as Lactobacillus buchneri) MAKVITLEEHFSSQKLGQKMAEVLPKRPIGNVSPKMQDYMQRSLPPEAELEDVTGSRIQWMDQHQISMQILSYGNQNPQNSDPKFAVELTKLANDELAKAVAKAPDRFRAFASLPVSHPTDAAAELKRGVEELGFKGAMLVRPTSQAHPFFDDPFYLPIFEAAANLNVPVYLHPSFPDSQIIDYYYSNGPWDDKVSGILGTAGYGWHTDVGIQTVRLLLSGVFEKYPNLKLISGHWGEFASFALERMDQVMYPETNLSEPISKIYRDHVYVTPSGILTEPQLKFVKDEVGIEHLLYSIDYPYIKPENSGSFIESSPLTDEEKELFAHGNAEKLLQL	High	showed decarboxylation activity of dicamba	High
88 (protein, listed as Starkeya novella) MARKIALEEHFTTPELAGKYVARPTQSDALFADIERRLADFDELRLEMMDRAEIDLMVLSVTTPGVQGVRDTGEAIRLARGANDFLAREVQKRPSRYAGFAHLAMQDAEAAATELERAVRELGFRGALINGQTNGHYLDEDQYAPFWERVQELDVPVYLHPGNMADSPAMFAHRPELGGPIWAWTAETAAHALRLVFGGTFTRFPGAKVILGHMGETLPFLLWRLDSRREFDLGEKLAPDALPSAIIKRNIAVTTSGVCDPAPLVAALQALSDDNVMFSVDYPYEDPQLASKFIETAPIGEETRAKVCHGNAERLLGL	High	showed decarboxylation activity of dicamba	High
87 (protein, listed as Novosphingobium sp.) MASDIATAADLQTGGRQGYLRIATEEAFATRDQIDVYLRMVRDGTADRGMTSLWGFYAQSPSARATQIIERLLDLGEQRLADMDAAGIDKAVLALTSPGVQPLLDMEEARRIAGNANDRLAERCAAHPDRFIGMTAVAPQDPQWSAREILRGATQLGFKGVQINSHTQGRYLDEPFFDPIFRALGDVGQPLYIHPGTPPDSMIGPLLDAGLDGAIYGFGVETGMHLLRLITAGIFDRYPDLQIMVGHMGEALPYWLYRLDYMHQAGIRSQRYERMRPLKRTIAGYFRSNVLVTCSGMAWEPAIQFARQVMGEDRVMYAMDYPYQYEADEVRALDVMDLSPESKRKFFQTNAERWFDL	High	showed decarboxylation activity of dicamba	High
19 (protein, listed as Talaromyces marneffei) MATPIITLEEHYISSAIRDASETDHYAVFPSQIISKLNTLSTERLQDLDNGHVSLQVISHGPGAQPPYLCQAANDELASAISANPTRFAGFALLPIAEPQLAVQELERCITQHKFVGALIDNHTNGQFYDDQKFWPVFEKAQELDAPIYVHPSYPDEESGVAAHYRGNYDDRIAAALGAYGWGWHSDTALSILRLFAAGLFDTYPNIKIIIGHMGEMLPFQLERVIGIASRFGRSRGLREVWTQNIWVTTSGMFALAPLACLLQTMPIERVLYSVDYPFSANEKGFAFLEEIKKSGLIKEGEDWERFLYKNAQELLKVNV	High	showed decarboxylation activity of dicamba	High
5 (protein, listed as Staphylococcus aureus) MAQNNMEANQMKSITFEEHYVIEDIQKETMNAISADPKGVPMKVMLEGLEKKTGFTNADELSHHDERIQFMNNQDVQIQVLSYGNGSPSNLVGQKAIELCQKANDQLANYIAQYPNRFVGFATLPINEPEAAAREFERCINDLGFKGALIMGRAQDGFLDQDKYDIIFKTAENLGVPIYLHPAPVNSDIYQSYYKGNYPEVTAATFACFGYGWHIDVGIHAIHLVLSGIFDRYPKLNMIIGHWGEFIPFFLERMDEALFAEHLNHPVSYYFKNNFYITPSGMLTKPQFDLVKKEAGIDRILYAADYPYIEPEKLGVFLDELGLTDEEKEKISYTNGAKLLGLSSNN	High	showed decarboxylation activity of dicamba	High
16 (protein, listed as Staphylococcus aureus) MAQNNMEANQMKSITFEEHYVIEDIQKETMNAISADPKGVPMKVMLEGLEKKTGFTNADELSHHDERIQFMNNQDVQIQVLSYGNGSPSNLVGQKAIELCQKANDQLANYIAQYPNRFVGFATLPINEPETAAREFERCINDLGFKGALIMGRAQDGFLDQDKYDIIFKTAENLGVPIYLHPAPVNSDIYQSYYKGNYPEVTAATFACFGYGWHIDVGIHAIHLVLSGIFDRYPKLNMIIGHWGEFIPFFLERMDEALFAEHLNHPVSYYFKNNFYITPSGMLTKPQFDLVKKEAGIDRILYAADYPYIEPEKLGVFLDELGLTDEEKEKISYTNGAKLLGLSSNN	High	showed decarboxylation activity of dicamba	High
